Test [1] concerns the target T1, solubilized recombinant NDST1 (residues 79-882), bifunctional heparan sulfate … (human, UniProt P52848).
T1 construct: human N-deacetylase-N-sulfotransferase 1 (NDST1), residues 79-882, truncated at P78/S79 to remove the N-terminal transmembrane helix and a linker region; secreted behind a honeybee melittin secretion peptide; 6xHis tag cleaved with TEV protease; also called NDST1(79-882); solubilized NDST1; not shown: 6xHis, N-terminal, cleaved
The test is described as follows: differential scanning fluorimetry; NDST1 (1 µg) in 20 µL PBS pH 7.4 with 20X Sypro Orange, with 10.8 µM nAb; 25 to 95 °C. Conditions: both partners purified. A general note: Differential scanning fluorimetry follows unfolding on heating by fluorescence.

Test [2] deals with T2, biotinylated C-terminal Avitagged NDST1 (Homo sapiens, UniProt P52848, biotin on the C-terminal Avitag (BirA biotin-protein ligase)).
T2 construct: human N-deacetylase-N-sulfotransferase 1 (NDST1) with a C-terminal Avitag, made by PCR with tailed primers and subcloned into pOMNIBac; also called biotinylated NDST1; source: insect cells (baculovirus, pOMNIBac), purified; biotinylated with the BirA kit, then a final round of SEC; not shown: Avitag, C-terminal, kept
The test is described as follows: SPR; biotinylated NDST1 immobilised on a BiotinCAP sensor chip (Biacore T200), nanobody titrated from 10 µM, 25 °C, 20 mM MES pH 6.5, 100 mM NaCl, 0.05% Tween-20; steady-state responses fitted to a 1:1 model. The conditions noted are these: both partners purified. Background: Surface plasmon resonance follows binding to a sensor surface in real time, without labels.

Test [3] addresses T1, solubilized recombinant NDST1 (residues …). The test is described as follows: cell-based or functional assay.
Test [4] concerns the target T2, biotinylated C-terminal Avitagged NDST1. The test is described as follows: BLI; biotinylated NDST1 immobilised on Octet SA biosensors, nanobodies in PBS-T, 25 °C, 1000 rpm; steady-state responses fitted to a 1:1 model. Conditions: both partners purified.
Test [5] deals with T1, solubilized recombinant NDST1 (residues …). Description: cell-based or functional assay. This is another data set of the same source.

As a reminder, the Kd is the equilibrium constant for the complex coming apart. Low values mean tighter binding, high ones weaker binding.

T2 sequence (P52848 79-882): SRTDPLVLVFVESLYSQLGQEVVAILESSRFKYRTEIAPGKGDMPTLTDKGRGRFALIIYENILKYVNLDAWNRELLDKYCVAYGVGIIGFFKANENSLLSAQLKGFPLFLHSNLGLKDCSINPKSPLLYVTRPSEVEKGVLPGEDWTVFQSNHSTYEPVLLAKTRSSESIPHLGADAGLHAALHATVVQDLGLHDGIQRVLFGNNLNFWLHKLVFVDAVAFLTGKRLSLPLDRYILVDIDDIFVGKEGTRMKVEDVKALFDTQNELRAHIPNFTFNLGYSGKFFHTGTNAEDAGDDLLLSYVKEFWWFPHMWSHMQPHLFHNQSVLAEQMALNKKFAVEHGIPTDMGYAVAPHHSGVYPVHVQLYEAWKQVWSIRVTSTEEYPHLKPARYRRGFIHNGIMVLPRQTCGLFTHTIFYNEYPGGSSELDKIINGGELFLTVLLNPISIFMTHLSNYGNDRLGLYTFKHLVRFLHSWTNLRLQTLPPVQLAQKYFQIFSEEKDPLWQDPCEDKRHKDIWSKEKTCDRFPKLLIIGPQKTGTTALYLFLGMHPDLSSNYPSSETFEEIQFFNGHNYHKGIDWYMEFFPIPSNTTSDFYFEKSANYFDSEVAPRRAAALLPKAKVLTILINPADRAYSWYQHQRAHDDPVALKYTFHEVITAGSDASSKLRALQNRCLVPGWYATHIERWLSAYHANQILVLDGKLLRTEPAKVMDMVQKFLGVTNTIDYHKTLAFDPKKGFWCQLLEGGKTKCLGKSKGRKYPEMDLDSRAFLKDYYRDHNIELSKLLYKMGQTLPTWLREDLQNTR
T1 sequence (P52848 79-882): as above

B1: nAb5 (VHH)
VHH: QVQLVESGGGLVQAGGSLRLSCAASGRTFSSYVMGWFRQAPGKEREFVAAISWSGGTTDYAGSVKGRFTISRDNDRKTMYLEMNDLKPEDTALYYCNFKETWPRTGDYWGPGTQVTVSS
notes: llama VHH from an NDST1-immunized library, selected by phage display; also called anti-NDST1 nanobody 5; source: E. coli WK6, periplasmic extract, purified (HisTrap, SEC)
B1: in test [1], the “stabilization of NDST1 thermal denaturation with 10.8 µM nAb” value (“stabilization” for short) was approximately 2.6 °C. Besides, the dissociation constant (Kd) in test [2] came to 570 nM. Moreover, the “KI of inhibition of NDST1 activity (fluorometric coupled enzyme assay with Sult1a1-K65E-R68G, K5 substrate; Morrison equation)” value in test [3] turned out to be 3300 nM.

B2: nAb6 (VHH)
VHH: QVQLVESGGDLVQPGGSLRLSCAASKTIFVISDMGWYRQAPGKQRELVAMITSGGTTNYADSVKGRFTISRDNTQNTVWLQMNSLKPEDTAVYYCYARVERWRPTDSWGQGTQVTVSS
notes: llama VHH from an NDST1-immunized library, selected by phage display; also called anti-NDST1 nanobody 6; source: E. coli WK6, periplasmic extract, purified (HisTrap, SEC)
Consider B2, for which the Kd in test [4] worked out at 470 nM; in test [2] it was 840 nM.

B3: nAb13 (VHH)
VHH: QVQLVESGGGLVQSGGSLRLSCTASRRASSTIGWFRQAPGKEREFVAGINWSLETATYQDSIKDRFTISRDNANNTVYLQMNSLKPEDTAVYYCAASPYRVMGDTTLYPYWGQGTQVTVSS
notes: in PDB 8CHS nAb13 is modeled only as an all-Calpha chain derived from the nAb7 structure; llama VHH from an NDST1-immunized library, selected by phage display; also called anti-NDST1 nanobody 13; source: E. coli WK6, periplasmic extract, purified (HisTrap, SEC)
For the molecule B3, in test [4], the Kd came to 240 nM. Further, the “stabilization” value in test [1] was approximately 1.9 °C. For the same molecule, the Kd in test [2] came to 530 nM. The “EC50 of enhancement of NDST1 activity (fluorometric coupled enzyme assay with Sult1a1-K65E-R68G, K5 substrate)” value in test [3] was 450 nM. Moreover, in test [5], the “fold enhancement of NDST1 activity in the coupled enzyme assay” value is approximately 2 fold and the “kcat of NDST1 with respect to K5 with 30 µM nAb13, against NDST1 alone (0.26 min^-1 vs 0.14 min^-1)” value is approximately 86%.

B4: nAb7 (VHH)
VHH: QVQLVESGGGSVQAGGSLRLSCAASGFNVDDYAIGWFRQSPGKEREGVSCIGGDGTTYYENSVKGRFTVSSDKRDNTVYLQMNNLRPEDTAIYFCAADRSKYCVGKYFSTPSQYDFWGRGTHVTVSS
notes: llama VHH from an NDST1-immunized library, selected by phage display; Long CDR3 loop R98-F116; also called anti-NDST1 nanobody 7; source: E. coli WK6, periplasmic extract, purified (HisTrap, SEC)
As for B4, the Kd in test [4] was 120 nM; in test [2], 220 nM. In addition, in test [1], the “stabilization” value was approximately 4.4 °C. Besides, the “KI of inhibition of NDST1 activity (fluorometric coupled enzyme assay with Sult1a1-K65E-R68G, K5 substrate; Morrison equation)” value in test [3] turned out to be 240 nM. The “fold decrease in kcat/KM of NDST1 with respect to K5 with 30 µM nAb7, against NDST1 alone (0.06 vs 0.18 min^-1 mg^-1 mL)” value in test [5] is approximately 3 fold.

B5: nAb1 (VHH)
VHH: QVQLVESGGGLVQAGGSLRLSCAASDRTFTTYAMAWFRRAPPGKEREFVASIRWDGFGTYYTDSVKGRFTISRDSAKNEAYLQMNSLRPEDTGVYYCAAGLLFGNTKGYDHWGQGTQVTVSS
notes: llama VHH from an NDST1-immunized library, selected by phage display; also called anti-NDST1 nanobody 1; source: E. coli WK6, periplasmic extract, purified (HisTrap, SEC)
As to B5, the equilibrium dissociation constant (Kd) worked out at 2670 nM in test [4] and 2370 nM in test [2].

The values are drawn from publication PMC10864358, “Structural and mechanistic characterization of bifunctional heparan sulfate N-deacetylase-N-sulfotransferase 1” (Nature Communications, 2024).
